Publication PMC7954438

Biological target: Sushi domain of IL15Rα (aa1-66) fused to the CH2-CH3 of human IgG1 Fc
Assay: SEC

Sequence of Sushi domain of IL15Rα (aa1-66) fused to the CH2-CH3 of human IgG1 Fc (Q13261 1-66): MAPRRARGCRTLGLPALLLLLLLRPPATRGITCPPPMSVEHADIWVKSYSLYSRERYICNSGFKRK

Sushi domain of IL15Rα (aa1-66) fused to the CH2-CH3 of human IgG1 Fc (Fc fusion)
stoichiometry N: 2
